Experimental data taken from the nanobody polyreactivity screen of Harvey et al. (2022).

Assay: yeast display, Sf9 membrane polyspecificity reagent, FACS + sequencing; frameworks hold sequencing errors
Summary of the method: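 Galactose induction of a Saccharomyces cerevisiae BJ5465 synthetic nanobody display library ran 36–48 hours. The cells were then stained for 1 hour at 4 °C with 10% biotinylated, detergent-solubilized Sf9 membrane reagent, pulled down on streptavidin microbeads and FACS-sorted into low and high (top ~1%) gates on expression and reagent-binding fluorescence. Labels for polyreactivity follow the gate of origin.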

Sequence	polyreactivity (PSR sort gate)
QVQLVESGGGLVQAGGSLRLSCAASGRIVGYAMGWYRQAPGKERELVAAITGSTGSTYYADSVKGRFTISRDNAKNTVYLQMNSLKPEDTAVYYCATKYGRYVYYNHVTWMYYWGQGTQVTVSS	high polyreactivity
QVQLVESGGGLVQAGGSLRLSCAASGSIFYRNAMGWSRQAPGKERELVAAISASGGSTYYADSVKGRFTISRDNAKNTVYLQMNSLKPEDTAVYYCAVEYRKSRSYAPMGYWGQGTQVTVSS	high polyreactivity
QVHLVESGGGLVQAGGSLRLSCAASGLTFWAYTLGWYRQAPGQERELVAAITSSGGRTYYADSVKGRFTISRDNAKNTVYLQMNSLKPEDTGVYYCNARIFRSPTPYDYWGQGTQVTVSS	high polyreactivity
QVQLVESGGGLVQAGGSLRLSCAASGSTLRGYAMGWYRQAPGKEMELVAAITRSGGSTYYADSVKGRFTISRDNAKNTVYLQMNSLKPEDTAVYYCNARAFPYYRRFDYWGQGTQVTVSS	high polyreactivity
QVQLVESGGGLVQAGGSLRLSCAASGSTFGKYAMGWYRQAPGKERELVARIDSGDRTRYADSVKGRFTISRDNAKNTVYLQMNSLKPEDTAVYYCAARYVGARNAYRMGYWGQGTQVTVSS	high polyreactivity
QVQLVESGGGLVQAGGSLRLSCAASGRTFKSYAMGWYRQAPGKERELVAAISYSGGSTYYADSVKGRFTISRDNAKNTVYLQMNSLKPEDTAVYYCNVVSKVIRGLSGDGYWGQGTQVTVSS	high polyreactivity
QVQLVESGGGLVQAGGSLRLSCAASGSIFDFYAMGWYRQAPGKEREFVAAITQSGASTYADSVKGRFTISRDNAKNTVYLQMNSLKPEDTAVYYCNADSGGRGAPTSTYDYWGQGSQVTVSS	low polyreactivity
QVQLVESGGGLVQAGGSLRLSCAASGIIFPSYAMGWYRQAPGKERELVAAISLSGGRTYYADSVKGRFTISRDNAKNTVYLQMYSLKPEDTAVYYCAAYPSTSYSKYGYYWGQGTLVTVSS	high polyreactivity
QVQLVESGGGLVQAGGSLRLSCAPSGSIFPDYAMGWYRHAPGKQRELVAAIRSGSRTYYADSVKGRFTISRDNAKITVYLQMNSLNPEDTAVYYCATTYGTPRYDYWGQGTQVTVSS	high polyreactivity
QVQLVESGGGLVQAGGSLRLSCAASGSTYERYAMGWYRQAPGKERELVAAISAIGDSTYYADSVKGRITISRDNANNTVYLQMNSLKPEDTAVYYCAARYTRYHIGRGYYYWGQGTQVTVSS	high polyreactivity
QVQLVESGGGLVQAGGSLRLSCAASGRTFRTNAMGWYRQAPGKESELVADITYSGDSTYDADSVKGRFTISRDNAKNNVYLQMNSLKPEDTAVYYCNARLLSGPGYDYWGQGTQVTVSS	low polyreactivity
QVQLVESGGGLVQAGGSLRLSCAASGFTFGDYAMGRYRPEPGKERELVAAISSGGNTNYADSVKGRFTISRDNAKHTVYLQMNRLKPEDTAVNNCAPRRQSKGYKLNYWGHGTQVTVSS	high polyreactivity
QVQLVESGGGLVQAGGSLRLSCAASGRTFIYNAMAWYRQAPWKERELVAGITRSGGSTYYADSVKGRFTISRDNAKNTVYLQMNSLKPEDTAVYYCAAARRTKTFSSYYYWGQGTQVTVSS	high polyreactivity
QVQLVESGGGLVQAGGSLRLSCAASGITFDSNAMGWYRQAPGKERELVAAISASGGRTYYADSVKGRFTISRDNAKNTVYLQMNSLKPEDTAVYYCNARYYVKHPLPYDYWGQGTQVTVSS	low polyreactivity
QVQLVESGGVLVQAGGSLRLICAASGSIFGWNTKGWYRQSAGKERELVAGITRGGSTYYADSVKGRFTISRDNAKNTVYLQMNRQKPEDTAVYYCAALVYRAWEFEFWGQGTQVTVSS	high polyreactivity
QVQLVESGGGLVQAGGSLRLSCAASGRIFGVYGMGWYRQAPGKERELVAAITISGRTNYADSVKGRFTISRDNAKNTVYLQMNSLKREDTAVYYCAAGGQARHDYWGQGTQVTVSS	low polyreactivity

Sequence	polyreactivity (PSR sort gate)
QVQLVESGGGLVQAGGSLRLSSAASGSTLRRYAMGWYRQAPGKERELVAAISGSGDSTYYADSVKGRFTISRDNAKNTVYLQMNSLKPEDTAVYYCNAVYAFNGYDYWGQGTQVTVSS	low polyreactivity
QVQLVESGAGLVQAGGSLRLSCAASGRIFRCYAMGWYRQAPGKERELVAAIRSGGSTNYADSVKGRFTISRDNAKNTVYLQMLSLKPEDTAVYYCATQNIYRIHQSLWGWYGYWGQGTQVTVSS	low polyreactivity
QVQLVETGGGLVQAGGSLRLSCAASGNTFVLYAMGWYRQAPGKERELVAAIRRGVRTYADSVKGRFTISRDNAKNTFYLQMNSLIPDDTAVYYCAAYYVFLDNDYWGHGTQVTVSS	high polyreactivity
QVQLVESGGGLVQAGGSLRLSCAASGGIFTNNAMGWYRQAPGKERELVAAITGSGASTYYADSVKGRFTISRDNAKNTVYLQMNSLKPEDTAVYYCAALSKYYAPLSRYDYWGQGTQVTVSS	high polyreactivity
QVQLVESGGGLVQAGGSLRLSCSDSGRTFGGNAMGRYRQAPGKERELVAAISRSGGTTYYADSVKGRFTISRDNAKNTVYLQMNSLKPEDTAVYYCNTRRYGAMYYWGQGTQVTVSS	high polyreactivity
QVQLVESGGGLVQAGGSLRLSCAASGSIFLANAMGWYRQAPGKERELVAAINYADSVKGRFTISRDNAKNTVYLQMNSLKPEDTAVYYCYSKYDYWGQGTQVTVSS	low polyreactivity
QVQLVESGGGLVQAGGSLRLSCAASGSIFTGYAMGWYRQAPGKDRELVAAISWRGGGTYYADSVQGRFTISRDNAKNTVYLQMNSQKPEDTAVYDCAAVTKFGQYAPGSKGYGYWGQATQVTVSS	low polyreactivity
QVQLVESGGGLVQAGGSLRLSCAASGSIFGSNAMGWYRQAPGKERELVAAISSGSTYYADSVKGRFTISRDNAKNTVYLQMNSLKPEDTAVYYCNARSLLYEFDYWGQGTQVTVSS	low polyreactivity
QVQLVESGGGLVQAGGSLRLSCAASGSTFYFYDMGWYRQAPGKERELVATIDDGGGSTYYADSVKGRFTISRDNAKNTVYLQMNSLKPEDTAVYYCNADDSEYLIYDYWGQGTQVTVSS	low polyreactivity
QVQLVESGGGLVQAGGSLRLSCAASGSIFNQYPMGWYRQAPGKERELVAAISSGSTYYADSVKGRFIISRDNAKITVYLQMNSMKAEDTAVNNCAKDRHSPYWAMDYWGQGTQVTVSS	high polyreactivity
QVQLVESGGGLVQAGGSLRLSCAASGRIFRYNAMGWYRQAPGKERELVASINQRGGYTYYADSVKGRFTISRDNAKNTVYLQMNSLKPEDTAVYYCAADRPRGRETVYYWGQGTQVTVSS	high polyreactivity
HVQLVESGGGLVQAGGSLRLSCAASGFIFPENAMGWYRQAPGKERELVAAIRTGGSTYYADSVKGRFTISRDNAKNTVYLQMNSLKPEDTAVYYCAARFHYEKYSYWYFDEDYWGQGTQVTVSS	high polyreactivity
QVQLVESGGGLVQAGGSLRLSCAASGRIFPAYAMGWYRQAPGKERELVASIRRGGITYADSVKGRFTSSRDNAKNTVYLQMNSLKPEDTAVYYCNADKYGPSAYDYWGQGTQVTVSS	low polyreactivity
QVQIVESGGGLVQAGGSLRLSCAASGSTFYRNAMGWYRQAPGKERELVAAIRWTGGNTYYADSVKGRFTISRDNAKNTVYLQMNSLKPEDTAVYYCAARSPLYGHGYWGQGTQVTVSS	high polyreactivity
QVQLVESGGGLVQAGGSLRLSCAASGFIFGGYAMGWYRQAHGKEREWVAAISRSGGSTYYADSVKGRFTISRDNAKNTVYLQMNSLKPEDTAVYYCNAVPRRQGFNYWGQGTQVTVSS	high polyreactivity
QVQLVESGGGLVQAGGSLRLSCAASGSTLGYNVMAWYRQAPGKERELVAAISGEGSTNYADSVKGRFTISRDNAKNTVYLQMNSLKPEDTAVYYCAADSRDDYEYWRQGTQVTVSS	low polyreactivity
